Molecular target: trypsin
Assay: cell-based or functional assay

Row | Specific Inh. Activity [TIU/mg IαIp] | Substance
1 | 1410 | Human IαIp (mixture of inter-alpha inhibitor IαI and pre-alpha inhibitor PαI) purified from cryoprecipitate, a side-fraction of fVIII production (from UniProt P02760 206-352; P19827 35-672; P19823 55-702; Q06033 35-651)
2 | 1410 | Highly purified human IαIp (mixture of inter-alpha inhibitor IαI and pre-alpha inhibitor PαI) purified from cryo-poor plasma (from UniProt P02760 206-352; P19827 35-672; P19823 55-702; Q06033 35-651)

From USRE47972
